Where a chain is given by its changes, count along the chain named. Names may count otherwise. Square brackets hold non-standard residues; d marks the D form. Ends that are not written are not given here. pT = C[C@@H](OP(=O)(O)O)[C@H](N)C(=O)O; pS = N[C@@H](COP(=O)(O)O)C(=O)O
T1: FLAG-tagged Tah1 (yeast, UniProt P25638 1-111)
T1 construct: Tah1p, S. cerevisiae; also called FLAG-Tah1; Flag-Tah1p
T1 sequence: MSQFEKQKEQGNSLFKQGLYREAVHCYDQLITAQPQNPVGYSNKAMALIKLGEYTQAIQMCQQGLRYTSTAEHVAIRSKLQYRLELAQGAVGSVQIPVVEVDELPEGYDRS

T2: Tah1 (yeast, full-length) (yeast, UniProt P25638 1-111)
T2 construct: Tah1, S. cerevisiae, full length (C-terminal residue Ser 111); Selenomethionine-labelled Tah1 was used for the crystal structure; also called Tah1p; SeMetTah1
T2 sequence (looked up): T1 sequence

B1: Mre11 phosphopeptide MANDpSDDSI (peptide)
peptide: MAND[pS]DDSI
notes: Mre11, phosphorylation site 554-MANDpSDDSIS-563 found among sites in human proteins
B2: Tel2 peptide with pSer492 replaced by phosphothreonine (peptide)
peptide: QGSDSELD[pT]DDEF
notes: also called phosphothreonine Tel2 peptide
B3: human Spagh/RPAP3 120-395 (tandem TPR region) (domain or fragment, UniProt Q9H6T3 120-395, looked up)
chain: ESEEDGIHVDSQKALVLKEKGNKYFKQGKYDEAIDCYTKGMDADPYNPVLPTNRASAYFRLKKFAVAESDCNLAVALNRSYTKAYSRRGAARFALQKLEEAKKDYERVLELEPNNFEATNELRKISQALASKENSYPKEADIVIKSTEGERKQIEAQQNKQQAISEKDRGNGFFKEGKYERAIECYTRGIAADGANALLPANRAMAYLKIQKYEEAEKDCTQAILLDGSYSKAFARRGTARTFLGKLNEAKQDFETVLLLEPGNKQAVTELSKIKK
notes: Spagh/RPAP3, human, residues 120-395, tandem TPR region; GST fusion with a PreScission site; also called Spagh/RPAP3-TPR2 (label of the tandem region in the text); wild-type Spagh/RPAP3
B4: Spagh/RPAP3 120-395 N321E (domain or fragment, human, UniProt Q9H6T3 120-395, looked up)
chain: B3 chain with N202E
notes: Spagh/RPAP3, human, residues 120-395, N321E in TPR2; also called N321E-TPR2 mutant
B5: Spagh/RPAP3 120-395 N172E (domain or fragment, human, UniProt Q9H6T3 120-395, looked up)
chain: B3 chain with N53E
notes: Spagh/RPAP3, human, residues 120-395, N172E in TPR1; also called N172E-TPR1 mutant
B6: dimeric C-terminal domain of Hsp90 (Hsp90 600-709) (domain or fragment)
chain: not shown
notes: Hsp90 residues 600-709, dimeric C-terminal domain; also called cHsp90; C-Hsp90
B7: Tah1p-Pih1p 187-344 complex (complex, yeast)
chain 1: T1 sequence
chain 2: HKIIEEEAGDPMSILRGRNDDGDDNNDPDDGTLPPLFPIENKISGAKIEEIDKNEIAHRNLKQAPAPAPAPHEQQEDVPEYEVKMKRFKGAAYKLRILIENKAPNSKPDRFSPSYNFAENILYINGKLSIPLPRDIVVNAADIKIFHIRKERTLYIYI
notes: Tah1, S. cerevisiae, full length; also called Tah1-Pih1-CS heterodimer
B8: human Hsp90 C-terminal peptide DDTSRMEEVD (peptide)
peptide: DDTSRMEEVD
notes: human Hsp90 C-terminal peptide; also called C-terminal Hsp90 peptide

Assays:
Conditions in all cases: both partners purified
[1] = molecular target: T3, mouse Pih1 PIH domain 1-200 (His-mPih1 1-200) (mouse, UniProt Q9CQJ2 1-200); experiment: ITC; peptides at 350 μM injected into 30 μM Pih1 (mPIH domain) at 30°C; 20 mM Tris pH 7.5, 5 mM NaCl
T3 construct: Pih1 (Pih1D1), mouse, residues 1-200; SeMet protein was used for the crystal structure 4CKT; The ITC methods say only 'Pih1' / 'mPIH domain'; also called mPIH domain; Pih1D1
T3 sequence (Q9CQJ2 1-200): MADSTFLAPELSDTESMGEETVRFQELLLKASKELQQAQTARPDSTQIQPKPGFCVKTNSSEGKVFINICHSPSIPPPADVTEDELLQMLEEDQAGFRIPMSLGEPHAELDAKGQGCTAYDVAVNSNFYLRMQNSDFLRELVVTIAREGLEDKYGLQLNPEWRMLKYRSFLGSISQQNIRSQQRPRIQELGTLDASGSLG

His6-Hsp90β = molecular target: T4, His6-Hsp90β (human, UniProt P08238 1-724); experiment: pull-down; His6-Hsp90β as bait, Spagh/RPAP3 120-395 tandem TPR segment (wild type and mutants) as prey
T4 construct: Hsp90 beta, human; also called His-tagged Hsp90; human Hsp90β
T4 sequence (P08238 whole entry): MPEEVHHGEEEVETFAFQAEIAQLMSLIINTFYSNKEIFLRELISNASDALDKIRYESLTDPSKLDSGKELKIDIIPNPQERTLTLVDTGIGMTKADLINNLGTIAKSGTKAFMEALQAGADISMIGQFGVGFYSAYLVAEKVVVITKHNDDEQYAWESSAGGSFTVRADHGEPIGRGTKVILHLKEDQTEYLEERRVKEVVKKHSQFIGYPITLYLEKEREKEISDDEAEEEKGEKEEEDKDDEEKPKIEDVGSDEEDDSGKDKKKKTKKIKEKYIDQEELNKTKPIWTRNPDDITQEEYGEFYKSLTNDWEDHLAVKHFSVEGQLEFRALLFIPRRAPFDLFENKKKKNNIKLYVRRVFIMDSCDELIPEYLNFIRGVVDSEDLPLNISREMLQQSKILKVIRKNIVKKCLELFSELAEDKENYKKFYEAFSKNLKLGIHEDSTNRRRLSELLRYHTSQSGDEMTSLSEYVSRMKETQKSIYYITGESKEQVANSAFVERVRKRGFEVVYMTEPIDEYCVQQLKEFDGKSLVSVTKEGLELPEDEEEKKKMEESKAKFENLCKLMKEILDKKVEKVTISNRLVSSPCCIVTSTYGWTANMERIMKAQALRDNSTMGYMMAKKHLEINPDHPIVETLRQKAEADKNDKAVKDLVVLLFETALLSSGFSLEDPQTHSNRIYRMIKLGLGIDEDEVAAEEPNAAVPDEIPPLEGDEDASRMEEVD

[2] = molecular target: T5, Cpr6 (monomeric TPR-domain Hsp90 cochaperone) (UniProt P53691 1-371); experiment: co-IP; 70 μM Flag-Tah1p, Hsp90 600-709 and increasing concentrations of Cpr6 in 20 mM HEPES pH 7.5, 150 mM NaCl, 10% glycerol, 0.5% Igepal, 2 mM EDTA; Anti-Flag M2 magnetic beads; SDS-PAGE
T5 construct: Cpr6, TPR-domain Hsp90 cochaperone
T5 sequence (P53691 whole entry): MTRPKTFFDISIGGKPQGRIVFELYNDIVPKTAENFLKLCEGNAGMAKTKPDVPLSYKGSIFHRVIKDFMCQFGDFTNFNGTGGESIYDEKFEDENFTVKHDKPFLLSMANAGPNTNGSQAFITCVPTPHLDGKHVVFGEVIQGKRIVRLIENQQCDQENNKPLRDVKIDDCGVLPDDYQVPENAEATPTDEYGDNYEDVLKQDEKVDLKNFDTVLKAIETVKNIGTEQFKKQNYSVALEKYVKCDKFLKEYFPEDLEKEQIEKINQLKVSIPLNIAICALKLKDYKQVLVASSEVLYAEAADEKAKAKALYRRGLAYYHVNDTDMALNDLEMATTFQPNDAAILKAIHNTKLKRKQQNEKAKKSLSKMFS

FLAG-tagged Tah1 = molecular target: T1, FLAG-tagged Tah1; experiment: as above
[3] = molecular target: B7; experiment: SEC; calibrated gel-filtration column; cHsp90, Tah1-Pih1p 187-344 and their mixture
[4] = molecular target: T2, Tah1 (yeast, full-length); experiment: as above
[5] = molecular target: B6; experiment: as above
[6] = molecular target: B4; experiment: ITC; 2 mM … injected into 80 μM Spagh/RPAP3 120-395 mutants (N172E, N321E, N172E-N321E); 10 mM Tris pH 7.5, 5 mM NaCl; temperature not given; two site model
[7] = molecular target: B5; experiment: as above
[8] = molecular target: B3; experiment: ITC; 2 mM … injected into 80 μM Spagh/RPAP3 120-395; 10 mM Tris pH 7.5, 5 mM NaCl; 10°C; two site fitting
[9] = molecular target: B3; experiment: ITC; 2 mM … injected into 80 μM Spagh/RPAP3 120-395; 10 mM Tris pH 7.5, 5 mM NaCl; 30°C; two site fitting

Binder: B1
Kd [1]: 6.4 µM

Binder: B2
Kd [1]: 45.7 µM

Binder: B3
binding result (His6-Hsp90β): binds

Binder: B4
binding result (His6-Hsp90β): binds

Binder: B5
binding result (His6-Hsp90β): binds

Binder: B6
binding result [2]: binds | binding result (FLAG-tagged Tah1): binds | binding result [3]: binds | binding result [4]: binds

Binder: B7
stoichiometry N [5]: 1 Tah1-Pih1 heterodimer per cHsp90 chain (2:2:2)

Binder: B8
KD of the TPR1 site (non-mutated; two site model) [6]: 0.94 µM | KD of the TPR1 site (mutated; two site model) [7]: ~231 µM | KD of the moderate-affinity site (two site fitting) [8]: 24 µM | KD of the tight site (two site fitting) [8]: 1 µM | KD of the moderate-affinity site (two site fitting) [9]: 23.6 µM | KD of the tight site (two site fitting) [9]: 1.49 µM | stoichiometry N [9]: ~2 peptides per Spagh/RPAP3

Reference: paper PMC4058522, “Structural Basis for Phosphorylation-Dependent Recruitment of Tel2 to Hsp90 by Pih1” (Structure(London, England:1993), 2014)
